One sequence from PMC13577091 can be followed below.

Data set [1] has as its target CcpA;HPr (Streptococcus pneumoniae D39?;Streptococcus pneumoniae D39) (UniProt A0A0H2ZQ65+A0A0H2ZP52). The experiment in a line: EMSA. Particulars: Beyotime chemiluminescent EMSA kit, 5X binding buffer (composition and pH not stated), 10 ul, room temperature, 10 min then 20 min with labeled probe, 6% ….
The target in data set [2] is CcpA (Streptococcus pneumoniae D39?) (UniProt A0A0H2ZQ65). The experiment in a line: EMSA. Particulars: Beyotime chemiluminescent EMSA kit, 5X binding buffer (composition and pH not stated), 10 ul, room temperature, 10 min then 20 min with labeled probe, 6% ….

Consider “TACACATCTGCTTCTAAAATATTGTTAGAAAACGATTTGACTGTCCTGATCAATTTGTCATGTTCTTATTTCATTTTACTATATTTTTGGTTCGCGGGAAGTCTACTAAGATACTTAAAGATGCAGATAGTGAAAAAAGGTGTAGACATTACCGTAAAAAAGTGATATAATCGTAAGATGTTCAATGTATAGGTGTTAATCATGAGTAGACGTTTTAA (double strand) [Pcps promoter probe]”, for which the binding result in data set [1] and in data set [2] was “binds” throughout.
